Source: patent US20130171217A1, “ENZYMATIC PERACID GENERATION FOR USE IN SKIN CARE PRODUCTS” (E I DU PONT DE NEMOURS AND COMPANY, priority 2010, published 2013)
Where “and” joins values, the source holds several entries; their conditions need not be identical. Identical values can stand only once.

Assay: One-step procedure on hair tresses, tress tensile strength
Conditions: for hair tensile strength: pH 6.6, 10 μg/mL enzyme
Description: COM-TEN® Tensile Tester 95-VD (Com-Ten Industries, Pinellas Park, Fla.), fitted with a 100 lb. (˜45.4 kg) load-cell was used for tensile tests. In order to reduce sample slippage, 5 mm wide strips of industrial grade VELCRO® (Velcro USA, Manchester, N.H.) were attached to the inside edges of the clamps. Before testing the CALIBRATION was set to “off”, FORCE UNITS were set to “grams” and the distance between the clamps was adjusted to 3 cm. The test sample was soaked in water for 30 seconds. Excess moisture was removed by gentle absorption on a paper towel, leaving enough moisture in hair for it to qualify as being at 100% humidity level. The glued edges of the test sample were clamped at both upper and lower clamps in such a way that the VELCRO® strips held the hair just below the glue. Tester speed was set to ˜2.5 inches by adjusting the speed control knob. With the Force meter in RUN mode, TARE was set to ZERO to set the starting PEAK FORCE to 0. To start the test the DIRECTION toggle switch was pressed to UP position. At the conclusion of the test, when the sample failed, the DIRECTION switch was moved to STOP and the peak force was recorded. The hair was cut off along the edge of the clamps at both lower and upper clamps. The clamps were opened and the stubs were removed, dried in air and weighed. The difference in original sample weight and combined weights of the stubs was the weight of the hair undergoing tensile elongation, and this quantity was used to calculate the tensile strength.
Tensile Strength (N/mg hair)=Peak force (Newtons)/(Initial sample weight−weight of stubs)
The hair tresses in these examples were cut from the stock medium brown hair swatches that were custom made by International Hair Importers (Glendale, N.Y.). Each hair tress was glued at one end, and cut at 5 mm width and 4 cm long (excluding the glued portion), with 100+/−20 mg net hair weight. For each test condition, triplicates of hair tresses were used. In the one-step procedure, each hair tress was placed in a clean plastic weighing tray (VWR, Cat. #12577-053), then 1 mL of the perhydrolase HC1121 solution in a buffer was applied to the hair tress, and was rubbed into the hair tress with an applicator. Then calculated amount of triacetin and 30% H2O2 were applied onto each hair tress and rubbed into the hair tress which gave 200 mM triacetin and 100 mM H2O2. The hair tress sat in this reaction mixture for 30 min, before being washed thoroughly with tap water followed by paper towel dry. This completed a 30 min treatment cycle. The treatment cycle was repeated 16 times. Hair tress became lighter-colored and weakened during the treatment. After final rinse and air-drying, tensile strength tests as described in Example 25 were conducted on each hair tress to quantify hair weakening. In addition, L*, a*, b* color measurements were taken for each hair sample to quantify hair color loss, and L*, a*, b* color measurements were also taken for untreated hair as a reference for ΔE color difference calculations. ΔE was calculated in the standard way as ΔE=((L*−L*ref)^2+(a*−a*ref)^2+(b*−b*ref)^2)^0.5. […] At pH 6, when 30 μg/mL HC1121 was used which gave 0.3 μg/mg hair E/H ratio, the tensile strength of treated hair tress reduced to 1.9 N/mg hair, approaching 1.5 N/mg hair, the benchmark strength of hair treated with NAIR® cream for 5 min. At pH 7, when 30 μg/mL HC1121 was used, the tensile strength of treated hair tress was 0.3 N/mg hair, much less than the 1.5 N/mg hair benchmark. Therefore, proper concentration of enzyme at proper pH could weaken hair effectively. The measured hair color loss for treated hair tresses correlated well with the weakening of hair: the greater hair weakening, the greater hair color loss. […]

[1] = 10 μg/mL HC1121, pH 6.6, 50 mM phosphate, 200 mM TA/100 mM H2O2, 24 hr/cycle, 8 cycles
[2] = 10 μg/mL HC1121, pH 6.6, 50 mM phosphate, 200 mM TA/200 mM H2O2, 24 hr/cycle, 8 cycles
[3] = 10 μg/mL HC1121, pH 6.6, 50 mM phosphate, 200 mM TA/300 mM H2O2, 24 hr/cycle, 8 cycles
[4] = 10 μg/mL HC1121, pH 6.6, 50 mM phosphate, 200 mM TA/500 mM H2O2, 24 hr/cycle, 8 cycles
[5] = 10 μg/mL HC1121, pH 6.6, 50 mM phosphate, 500 mM TA/500 mM H2O2, 24 hr/cycle, 8 cycles
[6] = one-step, 30 μg/mL enzyme, pH 6, 30 min × 16, listed as HC1121
[7] = one-step, 30 μg/mL enzyme, pH 7, 30 min × 16, listed as HC1121
[8] = one-step, pH 6.6, 50 mM buffer, 30 min/cycle X 16 cycles, SLES wash each cycle
[9] = one-step, pH 6.6, 50 mM buffer, 24 hr/cycle X 7 cycles, SLES wash each cycle
[10] = one-step, pH 6.6, 100 mM buffer, 30 min/cycle X 16 cycles, SLES wash each cycle

B1: C277S-HC263: C277S variant of Thermotoga maritima perhydrolase fused via a flexible linker to hair-binding domain HC263 (protein)
chain: MAFFDLPLEELKKYRPERYEEKDFDEFWEETLAESEKFPLDPVFERMESHLKTVEAYDVTFSGYRGQRIKGWLLVPKLEEEKLPCVVQYIGYNGGRGFPHDWLFWPSMGYICFVMDTRGQGSGWLKGDTPDYPEGPVDPQYPGFMTRGILDPRTYYYRRVFTDAVRAVEAAASFPQVDQERIVIAGGSQGGGIALAVSALSKKAKALLCDVPFLCHFRRAVQLVDTHPYAEITNFLKTHRDKEEIVFRTLSYFDGVNFAARAKIPALFSVGLMDNISPPSTVFAAYNYYAGPKEIRIYPYNNHEGGGSFQAVEQVKFLKKLFEKGGPGSGGAGSPGSAGGPGSPSAQSQLPDKHSGLHERAPQRYGPEPEPEPEPIPEPPKEAPVVIEKPKPKPKPKPKPPAHDHKNQKETHQRHAAGSGGGGSPHHHHHH
- Strength N/mg Hair, average [1]: 1.19 N/mg Hair
- Strength N/mg Hair, replicate1 [1]: 1.08 N/mg Hair
- Strength N/mg Hair, replicate2 [1]: 1.40 N/mg Hair
- Strength N/mg Hair, replicate3 [1]: 1.09 N/mg Hair
- Strength N/mg Hair, average [2]: 0.86 N/mg Hair
- Strength N/mg Hair, replicate3 [2]: 0.99 N/mg Hair
- Strength N/mg Hair, average [3]: 0.55 N/mg Hair
- Strength N/mg Hair, replicate1 [3]: 0.58 N/mg Hair
- Strength N/mg Hair, replicate2 [3]: 0.50 N/mg Hair
- Strength N/mg Hair, replicate3 [3]: 0.57 N/mg Hair
- Strength N/mg Hair, average [4]: 0.45 N/mg Hair
- Strength N/mg Hair, replicate1 [4]: 0.39 N/mg Hair
- Strength N/mg Hair, replicate2 [4]: 0.38 N/mg Hair
- Strength N/mg Hair, replicate3 [4]: 0.58 N/mg Hair
- Strength N/mg Hair, average [5]: 0.53 N/mg Hair
- Strength N/mg Hair, replicate1 [5]: 0.53 N/mg Hair
- Strength N/mg Hair, replicate3 [5]: 0.49 N/mg Hair
- Strength, replicates 1-3 (one-step, 5 μg/mL enzyme, pH 6, 200 mM triacetin, 100 mM H2O2, 30 min × 16, listed as HC1121): 2.89 N/mg Hair and 3.16 N/mg Hair and 3.03 N/mg Hair
- Strength, average (one-step, 5 μg/mL enzyme, pH 6, 30 min × 16): 3.03 N/mg Hair
- Strength, average (one-step, 15 μg/mL enzyme, pH 6, 30 min × 16): 2.95 N/mg Hair
- Strength, replicates 1-3 (one-step, 15 μg/mL enzyme, pH 6, 30 min × 16, listed as HC1121): 3.58 N/mg Hair and 2.54 N/mg Hair and 2.72 N/mg Hair
- Strength, average [6]: 1.9 N/mg Hair and 1.86 N/mg Hair
- Strength, replicates 1-3 [6]: 1.77 N/mg Hair and 1.86 N/mg Hair and 1.95 N/mg Hair
- Strength, average [7]: 0.3 N/mg Hair and 0.32 N/mg Hair
- Strength, replicates 1-3 [7]: 0.31 N/mg Hair and 0.33 N/mg Hair (2×)
- hair tensile strength (one-step, 200 mM triacetin, 100 mM H2O2, 8 cycles of 24 hr): 1.2 N/mg hair
- hair tensile strength (one-step, H2O2 over 300 mM, 8 cycles of 24 hr): about 0.5 N/mg hair
- Strength N/mg Hair, average [8]: 0.65 N/mg Hair
- Strength N/mg Hair, replicate1 [8]: 0.59 N/mg Hair
- Strength N/mg Hair, replicate2 [8]: 0.50 N/mg Hair
- Strength N/mg Hair, replicate3 [8]: 0.85 N/mg Hair
- Strength N/mg Hair, average [9]: 0.82 N/mg Hair
- Strength N/mg Hair, replicate1 [9]: 0.86 N/mg Hair
- Strength N/mg Hair, replicate2 [9]: 0.94 N/mg Hair
- Strength N/mg Hair, replicate3 [9]: 0.66 N/mg Hair
- Strength N/mg Hair, average [10]: 0.30 N/mg Hair
- Strength N/mg Hair, replicate1 [10]: 0.22 N/mg Hair
- Strength N/mg Hair, replicate2 [10]: 0.34 N/mg Hair
- Strength N/mg Hair, replicate3 [10]: 0.35 N/mg Hair
